The chains are these.
B1: ZNF449 (parent)
chain: TLHQRTHTEERPFKCNYCGKSFRQ

Here are results for 94 variants from the supplement of paper PMC10567573.
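Further: lentivirally expressed fusions sorted by FACS into six bins by GFP to DsRed ratio, PSI derived from sequencing read proportions per bin multiplied by bin number.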

The variants in this data set derive from B1. Briefly: protein stability index of a GFP-peptide fusion (GPS, HEK-293T) (PSI 1-6); higher = more stable. Conditions: c terminus: a fixed tail appended.
For TLHQRTHTEERPFKCNYCGNSFRQ [K20N], the protein stability index is 2.37.
As for TLHQRTHTEERPFKCNYCGISFRQ [K20I], the figure is 2.1.
As for TLHQRTHTEERPFKCNYCGWSFRQ [K20W], the figure is 1.88; as for TLHQRTHTEERPFKCNYCGVSFRQ [K20V], 2.41.
In the case of TLHQRTHTEARPFKCNYCGKSFRQ [E10A], the protein stability index was 1.95.
The same measure for TLHQRTHTENRPFKCNYCGKSFRQ [E10N]: 2.48; for TLHQRTHTEHRPFKCNYCGKSFRQ [E10H]: 1.78; for TLHQRTHTECRPFKCNYCGKSFRQ [E10C]: 1.74.
As for TLHQRTHTEERPFKCNECGKSFRQ [Y17E], the figure is 2.3; as for TLHQRTHTEERPFKCNLCGKSFRQ [Y17L], 2.15; as for TLHQRTHTEERPFKCNQCGKSFRQ [Y17Q], 3.16.
As for TLHQRTHTEERPFKCNYCNKSFRQ [G19N], the figure is 2.48; as for TLHQRTHTEERPFKCNYCCKSFRQ [G19C], 2.38; as for TLHQRTHTEERPFKCNYCGKSVRQ [F22V], 3.59.
Turning to TLHQRTHTEERPFKCNYCGKSKRQ [F22K], the protein stability index stood at 3.37.
The same measure for TLHQRTHTEERPFKCNYCGKSHRQ [F22H]: 3.05.
As for TLHQRTHTEERPFKCNYCGKSWRQ [F22W], the figure is 1.74; as for TLHQRTHTEERPFKCNYCGKSPRQ [F22P], 3.03.
As for TLHQRTHTEERPFKCNYCGKSQRQ [F22Q], the figure is 2.88.
Turning to TLHQRTHTEERPFKCNYCGKHFRQ [S21H], the protein stability index turned out to be 2.58.
Turning to TLHQRTHTEERPFKCNYCGKSFRT [Q24T], the protein stability index came out at 2.75.
The same measure for TLHQRTHTEERPFKCNYCGKSFRC [Q24C]: 1.84.
Take TLHQRTHTEERPFKCNYCGKSFRG [Q24G]: the protein stability index was 2.62.
The same measure for TLHQRTHTEERPFKCNYCGKSFRA [Q24A]: 2.55.
For the variant TLHQRTHTEERPFICNYCGKSFRQ [K14I], the protein stability index worked out at 2.27.
The same measure for TLHQRTHTEERPFCCNYCGKSFRQ [K14C]: 2.71; for TLHQRTHTEERPFSCNYCGKSFRQ [K14S]: 2.34; for TLHQTTHTEERPFKCNYCGKSFRQ [R5T]: 2.45.
The same measure for TLHQKTHTEERPFKCNYCGKSFRQ [R5K]: 2.77; for TLHQITHTEERPFKCNYCGKSFRQ [R5I]: 1.97; for TLHQRTHTEERPFKCNYCGKSFAQ [R23A]: 2.69.
The same measure for TLHQRTHTEERPFKCNYCGKSFNQ [R23N]: 2.35; for TLHQRTHTEERPFKCNYCGKSFQQ [R23Q]: 2.16; for TLHQRTHTEERPFKCNYCGKSFDQ [R23D]: 3.
As to TLHQRTHTEELPFKCNYCGKSFRQ [R11L], the protein stability index amounted to 2.39.
TLHQRTHTEEMPFKCNYCGKSFRQ [R11M]: the protein stability index is 2.25.
As for TLHQRTHTEEFPFKCNYCGKSFRQ [R11F], the figure is 1.92; as for TLHQRTHTEEIPFKCNYCGKSFRQ [R11I], 2.08; as for TLHQRTHTKERPFKCNYCGKSFRQ [E9K], 3.15.
The same measure for TLHQRTHTSERPFKCNYCGKSFRQ [E9S]: 2.55.
Turning to TLHQRTHTPERPFKCNYCGKSFRQ [E9P], the protein stability index stood at 1.93.
As for TLHQRTHTIERPFKCNYCGKSFRQ [E9I], the figure is 1.8.
Consider TLHQRTHTFERPFKCNYCGKSFRQ [E9F], for which the protein stability index was determined as 1.25.
As for TLHQRTHTCERPFKCNYCGKSFRQ [E9C], the figure is 2.4; as for TLHQRTHTLERPFKCNYCGKSFRQ [E9L], 1.2; as for TLHQRTHTEERPFKCNYRGKSFRQ [C18R], 3.38.
As for TLHQRTHTEERPFKCNYPGKSFRQ [C18P], the figure is 2.91; as for TLHQRTHTEERPFKCNYHGKSFRQ [C18H], 2.96; as for TLHQRTHTEERPFKQNYCGKSFRQ [C15Q], 3.37.
As for TLHQRTHTEERPFKGNYCGKSFRQ [C15G], the figure is 3.43.
On to TLHQRTHTEERPFKFNYCGKSFRQ [C15F], for which the protein stability index was determined as 2.98.
Take TLHQRTHTEERTFKCNYCGKSFRQ [P12T]: the protein stability index was found to be 2.26.
The same measure for TLHQRTHTEERHFKCNYCGKSFRQ [P12H]: 2.32.
As for TLHQRTHTEERAFKCNYCGKSFRQ [P12A], the figure is 2.81; as for TLHQRTHTEERIFKCNYCGKSFRQ [P12I], 3.29; as for TLHQRTHTEEREFKCNYCGKSFRQ [P12E], 3.26.
As for TFHQRTHTEERPFKCNYCGKSFRQ [L2F], the figure is 3.22; as for TCHQRTHTEERPFKCNYCGKSFRQ [L2C], 3.15.
For the variant TDHQRTHTEERPFKCNYCGKSFRQ [L2D], the protein stability index came to 2.77.
The same measure for TIHQRTHTEERPFKCNYCGKSFRQ [L2I]: 2.17.
Turning to TSHQRTHTEERPFKCNYCGKSFRQ [L2S], the protein stability index was determined as 2.7.
The same measure for TKHQRTHTEERPFKCNYCGKSFRQ [L2K]: 2.74; for TAHQRTHTEERPFKCNYCGKSFRQ [L2A]: 2.95.
Regarding TQHQRTHTEERPFKCNYCGKSFRQ [L2Q], the protein stability index amounted to 2.41.
For the variant TLHQRTHTEERPPKCNYCGKSFRQ [F13P], the protein stability index was determined as 2.24.
As for TLHQRTHTEERPAKCNYCGKSFRQ [F13A], the figure is 2.14.
The same measure for YLHQRTHTEERPFKCNYCGKSFRQ [T1Y]: 2.01.
The same measure for GLHQRTHTEERPFKCNYCGKSFRQ [T1G]: 2.89; for SLHQRTHTEERPFKCNYCGKSFRQ [T1S]: 3.59.
In the case of HLHQRTHTEERPFKCNYCGKSFRQ [T1H], the protein stability index worked out at 2.66.
As for TLSQRTHTEERPFKCNYCGKSFRQ [H3S], the figure is 2.1; as for TLTQRTHTEERPFKCNYCGKSFRQ [H3T], 2.42.
The same measure for TLIQRTHTEERPFKCNYCGKSFRQ [H3I]: 1.99; for TLQQRTHTEERPFKCNYCGKSFRQ [H3Q]: 2.83.
The same measure for TLVQRTHTEERPFKCNYCGKSFRQ [H3V]: 1.98; for TLCQRTHTEERPFKCNYCGKSFRQ [H3C]: 3.27; for TLHSRTHTEERPFKCNYCGKSFRQ [Q4S]: 2.12.
In the case of TLHKRTHTEERPFKCNYCGKSFRQ [Q4K], the protein stability index is 2.94.
As for TLHARTHTEERPFKCNYCGKSFRQ [Q4A], the figure is 2.08.
As for TLHERTHTEERPFKCNYCGKSFRQ [Q4E], the figure is 2.85; as for TLHRRTHTEERPFKCNYCGKSFRQ [Q4R], 3.24; as for TLHGRTHTEERPFKCNYCGKSFRQ [Q4G], 2.12.
As for TLHQRTHTEERPFKCSYCGKSFRQ [N16S], the figure is 3.03; as for TLHQRTHTEERPFKCYYCGKSFRQ [N16Y], 2.61.
TLHQRHHTEERPFKCNYCGKSFRQ [T6H]: the protein stability index came to 1.55.
The same measure for TLHQRMHTEERPFKCNYCGKSFRQ [T6M]: 2.03; for TLHQRTPTEERPFKCNYCGKSFRQ [H7P]: 2.43; for TLHQRTWTEERPFKCNYCGKSFRQ [H7W]: 2.88.
As for TLHQRTTTEERPFKCNYCGKSFRQ [H7T], the figure is 2.8; as for TLHQRTFTEERPFKCNYCGKSFRQ [H7F], 2.13.
As for TLHQRTATEERPFKCNYCGKSFRQ [H7A], the figure is 1.65.
As to TLHQRTHGEERPFKCNYCGKSFRQ [T8G], the protein stability index is 2.04.
As for TLHQRTHCEERPFKCNYCGKSFRQ [T8C], the figure is 2.3.
The same measure for TLHQRTHDEERPFKCNYCGKSFRQ [T8D]: 2.62.
